In patent US20130164299A1:
One block for each substance: values may come before it.

How the values were obtained:
[1] = molecular target: lectin-like transcript 1 (LLT1), recombinantly expressed on cells (human) (UniProt Q9UHP7); assay: cell-based or functional assay
CLEC2D iso4-Fc [2] = assay: ELISA, coated CLEC2D iso4-Fc, direct detection of the Fc portion
CLEC2D iso2-Fc [3] = assay: ELISA, coated CLEC2D iso2-Fc, direct detection of the Fc portion
CLEC2A-Fc protein [4] = molecular target: CLEC2A-Fc protein (UniProt Q6UVW9); assay: ELISA, coated CLEC2A-Fc, direct detection of the Fc portion
[5] = molecular target: LLT1-Fc fusion protein (human) (UniProt Q9UHP7); assay: ELISA, coated LLT1-Fc, direct detection of the Fc portion
CLEC2D iso2-Fc [6] = assay: ELISA, coated CLEC2D iso2-Fc, anti-mIg-HRP detection
CLEC2D iso4-Fc [7] = assay: ELISA, coated CLEC2D iso4-Fc, anti-mIg-HRP detection
[8] = molecular target: LLT1-Fc fusion protein (human) (UniProt Q9UHP7); assay: ELISA, coated LLT1-Fc, anti-mIg-HRP detection
CLEC2A-Fc protein [9] = molecular target: CLEC2A-Fc protein (UniProt Q6UVW9); assay: ELISA, coated CLEC2A-Fc, anti-mIg-HRP detection
[10] = molecular target: CD20 on C1R and C1R-LLT1 cells (UniProt P11836); assay: cell-based or functional assay
CD161, on cells = CD161, on cells (UniProt Q12918); assay: cell-based or functional assay

Sequence of lectin-like transcript 1 (LLT1), recombinantly expressed on cells (human) (Q9UHP7 whole entry): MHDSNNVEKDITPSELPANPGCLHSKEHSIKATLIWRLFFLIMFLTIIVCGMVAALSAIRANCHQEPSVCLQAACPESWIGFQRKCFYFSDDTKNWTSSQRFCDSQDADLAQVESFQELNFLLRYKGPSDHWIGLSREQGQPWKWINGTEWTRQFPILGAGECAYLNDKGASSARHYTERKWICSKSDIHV
Sequence of CLEC2A-Fc protein (Q6UVW9 49-174): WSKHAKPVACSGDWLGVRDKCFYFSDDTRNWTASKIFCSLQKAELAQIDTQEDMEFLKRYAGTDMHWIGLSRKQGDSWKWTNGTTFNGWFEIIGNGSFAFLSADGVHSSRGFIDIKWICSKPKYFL
Sequence of LLT1-Fc fusion protein (human) (Q9UHP7 60-191 limits assumed): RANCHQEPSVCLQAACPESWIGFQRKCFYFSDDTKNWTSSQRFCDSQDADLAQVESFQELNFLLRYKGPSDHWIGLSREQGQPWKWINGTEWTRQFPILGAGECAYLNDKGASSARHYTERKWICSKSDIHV
Sequence of CD20 on C1R and C1R-LLT1 cells (P11836 whole entry): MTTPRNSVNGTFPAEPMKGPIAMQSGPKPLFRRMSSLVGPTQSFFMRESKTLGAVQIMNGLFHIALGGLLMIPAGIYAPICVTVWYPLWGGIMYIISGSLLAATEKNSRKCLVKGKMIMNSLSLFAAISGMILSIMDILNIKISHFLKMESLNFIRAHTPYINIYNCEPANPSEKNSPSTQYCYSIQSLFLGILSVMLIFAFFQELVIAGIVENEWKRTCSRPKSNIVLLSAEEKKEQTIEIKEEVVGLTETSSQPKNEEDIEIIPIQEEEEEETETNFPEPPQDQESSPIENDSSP

Substance: anti-CD20 (rituximab) (antibody)
ADCC: specific lysis of C1R and C1R-LLT1 cells by NK cells (chromium release); antibody concentration giving lysis [10]: > 0.16 mg/mL

Substance: anti-CD161 mAb 191B8 (antibody)
% CD107a+ NK cells (NK cells + C1R-LLT1) (CD161, on cells): 13.2%
% IFN-γ+ NK cells (NK cells + C1R-LLT1) (CD161, on cells): 7.4%

Substance: anti-CD161 mAb HP3G10 (antibody)
% CD107a+ NK cells (NK cells + C1R-LLT1) (CD161, on cells): 9.5%
% CD107a+ NK cells, Raji target cells (no mAb 10.3) (CD161, on cells): 13.1%
% CD107a+ NK cells, Ramos target cells (no mAb 8.1) (CD161, on cells): 10.9%
% CD107a+ NK cells, SUDHL4 target cells (no mAb 11.6) (CD161, on cells): 17.5%
% IFN-γ+ NK cells (NK cells + C1R-LLT1) (CD161, on cells): 5.3%

Next, values leading:

% CD107a+ NK cells (NK cells + C1R-LLT1) [1]: 5.3%
% IFN-γ+ NK cells (NK cells + C1R-LLT1) [1]: 3.3%
Substance: AF3480 (antibody)

OD (CLEC2D iso4-Fc [2]): 1.04 OD
OD (CLEC2D iso2-Fc [3]): 1.01 OD
OD (CLEC2A-Fc protein [4]): 1.15 OD
OD [5]: 1.08 OD
Substance: HRP-conjugated anti-human Ig antibody

OD (CLEC2D iso2-Fc [6]): 0.117 OD
OD (CLEC2D iso4-Fc [7]): 0.112 OD
OD [8]: 1.21 OD
OD (CLEC2A-Fc protein [9]): 0.104 OD
% CD107a+ NK cells (NK cells + C1R-LLT1) [1]: 4.7%
% IFN-γ+ NK cells (NK cells + C1R-LLT1) [1]: 3%
Substance: MAB3480 (antibody)

% CD107a+ NK cells (NK cells + C1R-LLT1) (CD161, on cells): 8.1%
% IFN-γ+ NK cells (NK cells + C1R-LLT1) (CD161, on cells): 5.4%
Substance: anti-CD161 mAb DX12 (antibody)
